# Earlier results as cited in paper PMC7602980 (Biomolecules, 2020).
# Target: Cx43CT
# Conditions: compared with CaM; no reference printed beside the value; Drebrin–Cx43 interaction ref [78]; read-out: binding affinity Drebrin for Cx43CT, as quoted in discussion
# From the text: While CaM can be seen as mimicking P ...
molecule,measurement,value
"Drebrin: developmentally regulated brain protein, linker between Cx43 gap junctions and actin/submembrane cytoskeleton (protein, UniProt Q16643 2-649, looked up) Drebrin: AGVSFSGHRLELLAAYEEVIREESAADWALYTYEDGSDDLKLAASGEGGLQELSGHFENQKVMYGFCSVKDSQAALPKYVLINWVGEDVPDARKCACASHVAKVAEFFQGVDVIVNASSVEDIDAGAIGQRLSNGLARLSSPVLHRLRLREDENAEPVGTTYQKTDAAVEMKRINREQFWEQAKKEEELRKEEERKKALDERLRFEQERMEQERQEQEERERRYREREQQIEEHRRKQQTLEAEEAKRRLKEQSIFGDHRDEEEETHMKKSESEVEEAAAIIAQRPDNPREFFKQQERVASASAGSCDVPSPFNHRPGSHLDSHRRMAPTPIPTRSPSDSSTASTPVAEQIERALDEVTSSQPPPLPPPPPPAQETQEPSPILDSEETRAAAPQAWAGPMEEPPQAQAPPRGPGSPAEDLMFMESAEQAVLAAPVEPATADATEIHDAADTIETDTATADTTVANNVPPAATSLIDLWPGNGEGASTLQGEPRAPTPPSGTEVTLAEVPLLDEVAPEPLLPAGEGCATLLNFDELPEPPATFCDPEEVEGESLAAPQTPTLPSALEELEQEQEPEPHLLTNGETTQKEGTQASEGYFSQSQEEEFAQSEELCAKAPPPVFYNKPPEIDITCWDADPVPEEEEGFEGGD",Kd,~300 µM
